Experimental findings from article PMC6639074 (eLife, 2019) are described below.

This test has as its target T1, GFP-FLAG-STAMBPL1 (human, UniProt Q96FJ0 1-436).
T1 construct: STAMBPL1, human, amplified from FLAG-HA-STAMBPL1; GAGAGA linker between GFP and FLAG; also called GFP-STAMBPL1; recombinant STAMBPL1; source: HEK293T, transfected, purified (FLAG M2 resin, 3X FLAG peptide); MEFs, transfected (relocation imaging); not shown: GFP, N-terminal, kept; FLAG, N-terminal, kept
T1 sequence (looked up): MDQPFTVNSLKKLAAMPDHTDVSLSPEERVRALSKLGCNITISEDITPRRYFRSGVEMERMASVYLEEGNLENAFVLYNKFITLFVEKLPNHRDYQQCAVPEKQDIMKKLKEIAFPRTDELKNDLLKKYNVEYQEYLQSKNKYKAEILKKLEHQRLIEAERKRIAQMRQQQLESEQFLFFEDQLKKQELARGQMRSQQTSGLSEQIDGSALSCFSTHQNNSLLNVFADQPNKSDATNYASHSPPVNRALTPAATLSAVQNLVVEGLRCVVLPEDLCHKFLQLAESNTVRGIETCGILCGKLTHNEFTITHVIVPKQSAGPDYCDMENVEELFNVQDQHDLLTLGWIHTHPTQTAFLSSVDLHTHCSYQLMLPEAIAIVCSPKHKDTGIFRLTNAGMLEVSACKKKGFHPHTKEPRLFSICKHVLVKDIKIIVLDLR
Nature of the test: pull-down; purified GFP-FLAG-STAMBPL1 applied to GST-Rab beads with 100 uM GppNHp or GDP, 4 C, 2 hr, high salt elution, Coomassie stained gel. To be noted: both partners purified.

B1: GST-Rab2A(Q65L) (natural protein, human, UniProt P61019 1-212, looked up)
chain: MAYAYLFKYIIIGDTGVGKSCLLLQFTDKRFQPVHDLTIGVEFGARMITIDGKQIKLQIWDTAGLESFRSITRSYYRGAAGALLVYDITRRDTFNHLTTWLEDARQHSNSNMVIMLIGNKSDLESRREVKKEEGEAFAREHGLIFMETSAKTASNVEEAFINTAKEIYEKIQEGVFDINNEANGIKIGPQHAATNATHAGNQGGQQAGGGCC
notes: with GppNHp; also called GST-Rab2A QL; recombinant Rab2A
With B1, the binding result is listed as “binds”.
